Results reported in paper PMC6821609.

Molecular target: T1, HNF4α (hepatocyte nuclear factor 4α) (Homo sapiens, UniProt P41235 1-474)
T1 sequence: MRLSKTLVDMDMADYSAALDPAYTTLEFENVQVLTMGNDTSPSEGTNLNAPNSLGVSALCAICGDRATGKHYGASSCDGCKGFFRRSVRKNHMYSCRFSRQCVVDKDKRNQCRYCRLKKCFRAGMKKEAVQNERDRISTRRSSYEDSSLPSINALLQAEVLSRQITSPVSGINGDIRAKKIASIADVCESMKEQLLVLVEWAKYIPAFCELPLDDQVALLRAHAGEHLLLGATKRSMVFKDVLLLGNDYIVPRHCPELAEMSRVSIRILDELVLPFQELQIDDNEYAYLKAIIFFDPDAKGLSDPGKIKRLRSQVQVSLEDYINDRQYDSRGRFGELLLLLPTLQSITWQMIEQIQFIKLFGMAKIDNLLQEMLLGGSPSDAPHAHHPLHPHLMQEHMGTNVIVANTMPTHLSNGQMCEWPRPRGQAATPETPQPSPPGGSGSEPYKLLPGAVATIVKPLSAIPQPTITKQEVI
Experiment: EMSA

Binder	binding result
F9-wt (cfa_F9n_wt_Biotin) (dsDNA) DNA 1: CAGAAGTAAATACAGCTCAACTTGTACTTTGGAACAACTGGTCAACC DNA 2: GGTTGACCAGTTGTTCCAAAGTACAAGTTGAGCTGTATTTACTTCTG	binds
F9-mut (cfa_F9n_mut_Biotin) (dsDNA) DNA 1: CCAGAAGTAAATACAGCTCAACTTGTATTTGGAACAACTGGTCAACC DNA 2: GGTTGACCAGTTGTTCCAAATACAAGTTGAGCTGTATTTACTTCTGG	no binding
